pKd: −log10 of the molar value. Values joined by “and” are separate entries in the source; they are usually repeats but may differ in a detail not shown here. Equal values may be shown once. Read-outs that look alike come from different tables or passages of the source.
Key:
[1] = biological target: P1-PE (HIV-1 clade B HXB2) (UniProt P04578)
[2] = biological target: P1 (aa 630-685) clade B HXB2 HIV-1 (HIV-1 clade B HXB2) (UniProt P04578); assay: ELISA, P1 without lipid, nonlinear regression
[3] = biological target: P1-PE (HIV-1 clade B HXB2) (UniProt P04578); assay: ELISA, P1-PE in viral liposomes V2 (P1:lipids 1 for 20), nonlinear regression
[4] = biological target: P1-PE (HIV-1 clade B HXB2) (UniProt P04578); assay: ELISA, P1-PE in raft liposomes R1 (P1:lipids 1 for 100), nonlinear regression
[5] = biological target: P1 (aa 630-685) clade B HXB2 HIV-1 (HIV-1 clade B HXB2) (UniProt P04578); assay: ELISA on coated peptide (FIG. 1)
[6] = biological target: P1-PE (HIV-1 clade B HXB2) (UniProt P04578); assay: ELISA, P1-PE in raft liposomes R2 (P1:lipids 1 for 20), nonlinear regression
[7] = biological target: P1-PE (HIV-1 clade B HXB2) (UniProt P04578); assay: ELISA, P1-PE in viral liposomes V1 (P1:lipids 1 for 100), nonlinear regression

2F5 IgA2 (antibody)
pKd [1]: 9.82 and 9.68
pKd [2]: 9.70
pKd [3]: 10.62
pKd [4]: 10.30
antibody concentration of equivalent binding activity [5]: 0.05 nM
pKd [6]: 10.21
pKd [7]: 10.62

2F5 IgG1 (antibody)
pKd [1]: 8.88 and 9.16
pKd [2]: 8.13
pKd [3]: 9.39
pKd [4]: 9.30
antibody concentration of equivalent binding activity [5]: 6.25 nM
pKd [6]: 9.29
pKd [7]: 9.51
